This is an account of results in patent US20250163167A1 (SYNTHEKINE, published 2025).

T1: hIL10Rb ECD antigen (human, UniProt Q08334 20-220)
T1 construct: Antigen of biopanning and PE-ELISA; also called extracellular domain of hIL10Rb
T1 sequence: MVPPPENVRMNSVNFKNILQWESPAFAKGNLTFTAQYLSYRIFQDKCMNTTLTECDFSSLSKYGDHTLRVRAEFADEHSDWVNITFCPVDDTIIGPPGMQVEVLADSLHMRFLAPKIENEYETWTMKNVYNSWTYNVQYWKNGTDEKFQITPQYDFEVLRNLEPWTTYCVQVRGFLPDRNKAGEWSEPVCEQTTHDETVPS

T2: human IL-10 receptor (hIL-10R alpha and beta chains) on HEK-Blue IL-10 reporter cells (human, UniProt Q13651 22-578; Q08334 20-325)
T2 sequence 1: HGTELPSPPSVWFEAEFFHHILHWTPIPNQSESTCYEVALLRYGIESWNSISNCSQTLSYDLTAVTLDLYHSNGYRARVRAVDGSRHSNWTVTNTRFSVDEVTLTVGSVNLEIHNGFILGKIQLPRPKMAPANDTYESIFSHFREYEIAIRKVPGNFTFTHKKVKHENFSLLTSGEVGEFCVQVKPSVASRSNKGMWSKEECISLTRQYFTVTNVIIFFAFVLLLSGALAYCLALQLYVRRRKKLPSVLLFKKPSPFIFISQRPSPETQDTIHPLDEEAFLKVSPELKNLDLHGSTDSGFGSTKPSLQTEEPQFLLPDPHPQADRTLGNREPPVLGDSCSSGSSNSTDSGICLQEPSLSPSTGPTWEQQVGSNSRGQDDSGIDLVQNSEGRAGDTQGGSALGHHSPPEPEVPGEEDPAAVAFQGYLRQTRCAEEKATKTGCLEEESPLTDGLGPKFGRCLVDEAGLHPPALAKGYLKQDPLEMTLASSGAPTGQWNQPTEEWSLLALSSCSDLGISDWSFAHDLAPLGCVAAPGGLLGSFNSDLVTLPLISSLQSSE
T2 sequence 2: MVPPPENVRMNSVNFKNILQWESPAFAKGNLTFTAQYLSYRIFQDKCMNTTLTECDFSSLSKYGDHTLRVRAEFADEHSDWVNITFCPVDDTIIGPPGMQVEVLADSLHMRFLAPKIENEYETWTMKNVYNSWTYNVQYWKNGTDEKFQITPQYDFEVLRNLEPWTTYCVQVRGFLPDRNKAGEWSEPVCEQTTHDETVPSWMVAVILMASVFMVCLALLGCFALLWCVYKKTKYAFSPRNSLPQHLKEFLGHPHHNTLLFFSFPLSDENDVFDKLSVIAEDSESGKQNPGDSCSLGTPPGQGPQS

B1: hIL10Rb VHH-2 (VHH)
VHH: QVQLQESGGGSVQAGGSLRLSCAASGYTYSSYCMGWFRQAPGKEREGVAAIDSDGSTRYADSVKGRFTISKDNAKNTLYLQMNSLKPEDTAMYYCAAEPYCSGGYKRTMVAEFGYWGQGTQVTVSS
notes: Phage clone, periplasmic extract
B2: hIL10Rb VHH-14 (VHH)
VHH: B1 VHH with Y32G, A50T, D52N, R58N, A91G, K106P, T108W, M109S
notes: as for B1
B3: hIL10Rb VHH-9 (VHH)
VHH: B1 VHH with S11L, A14P, Y32G, A50T, D52N, R58N, K106P, T108W, M109S
notes: as for B1
B4: hIL10Rb VHH-8 (VHH)
VHH: QVQLQESGGGSVQAGGSLRLSCAASGYSYSSYCMGWFRQAPGKEREGVAAIASDGSTSYADSVKGRFAISKDNAKNTLYLQMASLKPEDTAMYYCAAEPWCTGGYSRLTPAEYGYWGQGTQVTVSS
notes: as for B1
B5: hIL10Rb VHH-11 (VHH)
VHH: B1 VHH with E44G
notes: as for B1
B6: hIL10Rb VHH-7 (VHH)
VHH: B1 VHH with Y32G, A50T, D52N, R58N, K106P, T108W, M109S
notes: as for B1
B7: IL10R binding molecule of SEQ ID NO: 294 (bispecific antibody)
chain: QVQLQESGGGSVQAGGSLRLSCGASGYTYSSYCMGWFRQVPGKEREGVAVIDSDGSTSYADSVKGRFTISKDNGKNTLYLQMNSLKPEDTAMYYCAADLGHYRPPCGVLYLGMDYWGKGTQVTVSSGGGSQVQLQESGGGSVQAGGSLRLSCTVSRYTASVNYMGWFRQAPGKEREGVATIFTGAGTTYYANSVKGRFTISRDNAKNTAYLQMNSLKPEDTAIYYCAVDFRGGLLYRPAYEYTYRGQGTQVTVSSASHHHHHH
B8: IL10R binding molecule of SEQ ID NO: 297 (bispecific antibody)
chain: QVQLQESGGGSVQAGGSLRLSCGASGYTYSSYCMGWFRQVPGKEREGVAVIDSDGSTSYADSVKGRFTISKDNGKNTLYLQMNSLKPEDTAMYYCAADLGHYRPPCGVLYLGMDYWGKGTQVTVSSGGGSQVQLQESGGGSVQTGGSLRLSCAASGYTYLRGCMGWFRQAPGKEREGVAVMDVVGDRRSYIDSVKGRFTISRDNAANSVYLQMDNLKPEDTAMYYCTAGPNCVGWRSGLDYWGQGTQVTVSSASHHHHHH
B9: IL10R binding molecule of SEQ ID NO: 303 (bispecific antibody)
chain: QVQLQESGGGSVQAGGSLRLSCAASGYSNCSYDMTWYRQAPGKEREFVSAIHSDGSTRYADSVKGRFFISQDNAKNTVYLQMNSLKPEDTAMYYCKTDPLHCRAHGGSWYSVRANYWGQGTQVTVSSGGGSQVQLQESGGGSVQAGGSLRLSCAASGYSYSSYCMGWFRQAPGKEREGVATIDSDGMTRYADSVKGRFTISKDNAKNTLYLQMNSLKPEDTAMYYCAAPLYDCDSGAVGRNPPYWGQGTQVTVSSASHHHHHH
B10: IL10R binding molecule of SEQ ID NO: 299 (bispecific antibody)
chain: QVQLQESGGGSVQAGGSLRLSCAASGYSNCSYDMTWYRQAPGKEREFVSAIHSDGSTRYADSVKGRFFISQDNAKNTVYLQMNSLKPEDTAMYYCKTDPLHCRAHGGSWYSVRANYWGQGTQVTVSSGGGSQVQLQESGGGSVQAGGSLRLSCAASGYTYSSYCMGWFRQAPGKEREGVAHIDSDGSTSYADSVKGRFTISKDNAKNTLYLQMNSLKPEDTAMYYCAADPIPGPGYCDGGPNKYWGQGTQVTVSSASHHHHHH
B11: IL10R binding molecule of SEQ ID NO: 300 (bispecific antibody)
chain: QVQLQESGGGSVQAGGSLRLSCAASGYSNCSYDMTWYRQAPGKEREFVSAIHSDGSTRYADSVKGRFFISQDNAKNTVYLQMNSLKPEDTAMYYCKTDPLHCRAHGGSWYSVRANYWGQGTQVTVSSGGGSQVQLQESGGGSVQAGGSLRLSCAASRYTYNSYCMGWFRQAPGKEREGVATIDSDGMTRYADSVKGRFTISKDNAKNTLYLQMNSLKPEDTAMYYCAADADCTIAAMTTNPLGQGTQVTVSSASHHHHHH
B12: IL10R binding molecule of SEQ ID NO: 296 (bispecific antibody)
chain: QVQLQESGGGSVQAGGSLRLSCGASGYTYSSYCMGWFRQVPGKEREGVAVIDSDGSTSYADSVKGRFTISKDNGKNTLYLQMNSLKPEDTAMYYCAADLGHYRPPCGVLYLGMDYWGKGTQVTVSSGGGSQVQLQESGGGSVQAGGSLRLSCAASGYSYSSYCMGWFRQAPGKEREGVATIDSDGMTRYADSVKGRFTISKDNAKNTLYLQMNSLKPEDTAMYYCAAPLYDCDSGAVGRNPPYWGQGTQVTVSSASHHHHHH
B13: IL10R binding molecule of SEQ ID NO: 298 (bispecific antibody)
chain: QVQLQESGGGSVQAGGSLRLSCAASGYSNCSYDMTWYRQAPGKEREFVSAIHSDGSTRYADSVKGRFFISQDNAKNTVYLQMNSLKPEDTAMYYCKTDPLHCRAHGGSWYSVRANYWGQGTQVTVSSGGGSQVQLQESGGGSVQAGGSLRLSCAASGYTYSSGCMGWFRQAPGKEREAVAAINSDGSTSYADSVKGRFTISKDNAKNTLYLQMNSLKPEDTAMYYCAAEPYCSGGYPRWSVAEFGYWGQGTQVTVSSASHHHHHH
B14: IL10R binding molecule of SEQ ID NO: 301 (bispecific antibody)
chain: QVQLQESGGGSVQAGGSLRLSCAASGYSNCSYDMTWYRQAPGKEREFVSAIHSDGSTRYADSVKGRFFISQDNAKNTVYLQMNSLKPEDTAMYYCKTDPLHCRAHGGSWYSVRANYWGQGTQVTVSSGGGSQVQLQESGGGSVQAGGSLRLSCTVSRYTASVNYMGWFRQAPGKEREGVATIFTGAGTTYYANSVKGRFTISRDNAKNTAYLQMNSLKPEDTAIYYCAVDFRGGLLYRPAYEYTYRGQGTQVTVSSASHHHHHH
B15: IL10R binding molecule of SEQ ID NO: 302 (bispecific antibody)
chain: QVQLQESGGGSVQAGGSLRLSCAASGYSNCSYDMTWYRQAPGKEREFVSAIHSDGSTRYADSVKGRFFISQDNAKNTVYLQMNSLKPEDTAMYYCKTDPLHCRAHGGSWYSVRANYWGQGTQVTVSSGGGSQVQLQESGGGSVEAGGSLRLSCAASGYTHSSYCMGWFRQAPGKEREGVAAIDVDGSTTYADSVKGRFTISKDNAKNTLYLQMNSLKPEDTGMYYCAAEFADCSSNYFLPPGAVRYWGQGTQVTVSSASHHHHHH
B16: IL10R binding molecule of SEQ ID NO: 295 (bispecific antibody)
chain: QVQLQESGGGSVQAGGSLRLSCGASGYTYSSYCMGWFRQVPGKEREGVAVIDSDGSTSYADSVKGRFTISKDNGKNTLYLQMNSLKPEDTAMYYCAADLGHYRPPCGVLYLGMDYWGKGTQVTVSSGGGSQVQLQESGGGSVEAGGSLRLSCAASGYTHSSYCMGWFRQAPGKEREGVAAIDVDGSTTYADSVKGRFTISKDNAKNTLYLQMNSLKPEDTGMYYCAAEFADCSSNYFLPPGAVRYWGQGTQVTVSSASHHHHHH
B17: IL10R binding molecule of SEQ ID NO: 293 (bispecific antibody)
chain: QVQLQESGGGSVQAGGSLRLSCGASGYTYSSYCMGWFRQVPGKEREGVAVIDSDGSTSYADSVKGRFTISKDNGKNTLYLQMNSLKPEDTAMYYCAADLGHYRPPCGVLYLGMDYWGKGTQVTVSSGGGSQVQLQESGGGSVQAGGSLRLSCAASRYTYNSYCMGWFRQAPGKEREGVATIDSDGMTRYADSVKGRFTISKDNAKNTLYLQMNSLKPEDTAMYYCAADADCTIAAMTTNPLGQGTQVTVSSASHHHHHH
B18: IL10R binding molecule of SEQ ID NO: 292 (bispecific antibody)
chain: QVQLQESGGGSVQAGGSLRLSCGASGYTYSSYCMGWFRQVPGKEREGVAVIDSDGSTSYADSVKGRFTISKDNGKNTLYLQMNSLKPEDTAMYYCAADLGHYRPPCGVLYLGMDYWGKGTQVTVSSGGGSQVQLQESGGGSVQAGGSLRLSCAASGYTYSSYCMGWFRQAPGKEREGVAHIDSDGSTSYADSVKGRFTISKDNAKNTLYLQMNSLKPEDTAMYYCAADPIPGPGYCDGGPNKYWGQGTQVTVSSASHHHHHH

Where a chain is given by its changes, count along the chain named.

For the first experiment, the target named is T1, hIL10Rb ECD antigen. The experiment is described as follows: periplasmic extract ELISA (PE-ELISA) of phage clones.
With B1, the binding result is on record as “binds”.
Still for that read-out and setting: with B2 the entry was “binds”; with B3, “binds”; with B4, “binds”.
In the case of B5, the binding result was “binds”.
On the same count and under the same terms, with B6 the entry was “binds”.

The next experiment deals with T2, human IL-10 receptor (hIL-10R alpha and …). Description: cell-based or functional assay.
As for B7, the “Abs 630 (25 nM)” value stood at 0.49 Abs 630 and the “Abs 630 (100 nM)” value amounted to 0.39 Abs 630.
For B8, in that order: 0.46 Abs 630 and 0.36 Abs 630.
For B9, in that order: 1.92 Abs 630 and 1.93 Abs 630.
For B10, in that order: 0.47 Abs 630 and 0.37 Abs 630.
In the case of B11, the “Abs 630 (25 nM)” value was determined as 2.08 Abs 630 and the “Abs 630 (100 nM)” value was 2.11 Abs 630.
Take B12: the “Abs 630 (25 nM)” value was found to be 0.54 Abs 630 and the “Abs 630 (100 nM)” value worked out at 0.38 Abs 630.
The matching figures for B13: 0.84 Abs 630 and 0.38 Abs 630.
Take B14: the “Abs 630 (25 nM)” value turned out to be 2.05 Abs 630 and the “Abs 630 (100 nM)” value was determined as 1.91 Abs 630.
The matching figures for B15: 1.98 Abs 630 and 2.09 Abs 630.
For B16, in that order: 0.72 Abs 630 and 0.46 Abs 630.
For B17, the “Abs 630 (25 nM)” value was found to be 0.54 Abs 630 and the “Abs 630 (100 nM)” value came out at 0.43 Abs 630.
The matching figures for B18: 0.78 Abs 630 and 0.47 Abs 630.
